# Measurements from IntAct's records for PubMed 21081649.
# B1: NAD-dependent protein deacetylase sirtuin-2 (Homo sapiens), Q8IXJ6-2 (parent)
# chain: MDFLRNLFSQTLSLGSQKERLLDELTLEGVARYMQSERCRRVICLVGAGISTSAGIPDFRSPSTGLYDNLEKYHLPYPEAIFEISYFKKHPEPFFALAKELYPGQFKPTICHYFMRLLKDKGLLLRCYTQNIDTLERIAGLEQEDLVEAHGTFYTSHCVSASCRHEYPLSWMKEKIFSEVTPKCEDCQSLVKPDIVFFGESLPARFFSCMQSDFLKVDLLLVMGTSLQVQPFASLISKAPLSTPRLLINKEKAGQSDPFLGMIMGLGGGMDFDSKKAYRDVAWLGECDQGCLALAELLGWKKELEDLVRREHASIDAQSGAGVPNPSTSASPKKSPPPAKDEARTTEREKPQ
# Variants of: B1
# Conditions: with h4_human H4C16, P62805
row,effect of a mutation on the interaction,Variant
1,increasing interaction,L4A;L12A;H150Y
